This series concerns the molecule itself. As to the kind of experiment: SEC.

B1: S. cerevisiae Dmc1 (ScDmc1), N-terminally (His)6-tagged (natural protein, UniProt P25453 1-334, looked up)
chain: MSVTGTEIDSDTAKNILSVDELQNYGINASDLQKLKSGGIYTVNTVLSTTRRHLCKIKGLSEVKVEKIKEAAGKIIQVGFIPATVQLDIRQRVYSLSTGSKQLDSILGGGIMTMSITEVFGEFRCGKTQMSHTLCVTTQLPREMGGGEGKVAYIDTEGTFRPERIKQIAEGYELDPESCLANVSYARALNSEHQMELVEQLGEELSSGDYRLIVVDSIMANFRVDYCGRGELSERQQKLNQHLFKLNRLAEEFNVAVFLTNQVQSDPGASALFASADGRKPIGGHVLAHASATRILLRKGRGDERVAKLQDSPDMPEKECVYVIGEKGITDSSD
As for B1, the binding result was “binds”.
